# Results published in patent publication US20240010730A1 (SHANGHAI HUAOTA BIOPHARMACEUTICAL, published 2024).
# Where two headings read alike, the source gives them in different places.
# T1: Human TIGIT (SPR analyte, Example 7) (human, UniProt Q495A1 22-141, limits assumed)
# T1 sequence (looked up): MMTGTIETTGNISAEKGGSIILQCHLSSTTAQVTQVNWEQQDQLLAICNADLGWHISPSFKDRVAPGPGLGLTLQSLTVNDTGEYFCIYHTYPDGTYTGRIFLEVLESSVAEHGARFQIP
# T2: human TIGIT on CHOK1-huTIGIT-2A3 cells (human, UniProt Q495A1 22-244)
# T2 construct: whole, on cells; also called cells expressing the human TIGIT
# T2 sequence (looked up): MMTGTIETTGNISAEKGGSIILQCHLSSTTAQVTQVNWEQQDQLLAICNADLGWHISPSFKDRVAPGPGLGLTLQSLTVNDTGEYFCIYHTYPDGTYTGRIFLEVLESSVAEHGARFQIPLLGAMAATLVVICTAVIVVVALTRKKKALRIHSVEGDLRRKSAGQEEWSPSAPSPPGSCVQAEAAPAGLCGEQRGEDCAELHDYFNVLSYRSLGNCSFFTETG
# Assays:
# [1] = molecular target: TIGIT on Jurkat-TIGIT-22G8 cells; assay: cell-based or functional assay
# [2] = molecular target: T3, Human PD-L1 (SPR analyte, Example 7) (human, UniProt Q9NZQ7 19-238, limits assumed); assay: SPR (Biacore 8K), antibody captured by anti-human chip, antigen analyte, 1:1 model
# Description: (§1) The Anti-Human Capture-CMS chip (GE, #BR-1005-30) was prepared according to the method for conjugating the Human Antibody Capture Kit (GE, #BR-1008-39) to the Amino Conjugation Kit (GE, BR-1000-50).
# [3] = molecular target: T1, Human TIGIT (SPR analyte, Example 7); assay: as above
# Description: as §1
# [4] = molecular target: T3, Human PD-L1 (SPR analyte, Example 7); assay: as above; remark: listed apart in the source
# Description: as §1
# [5] = molecular target: T1, Human TIGIT (SPR analyte, Example 7); assay: as above; remark: listed apart in the source
# Description: as §1
# [6] = molecular target: PD-L1 on CHO-K1-0S8-PD-L1-8D6 cells; assay: cell-based or functional assay
# [7] = molecular target: T2, human TIGIT on CHOK1-huTIGIT-2A3 cells; assay: flow cytometry competition with huCD155-moFc on CHOK1-huTIGIT-2A3 cells
# Description: After reaction, the 96-well U-shaped plate was resuspended with 1% BSA/PBS, centrifuged (300 g×3 min) to discard the supernatant, and washed once in such way; and Alexa488-goat anti-mouse-Fc (Jackson ImmunoResearch, #115-545-071) diluted at 1:300 was added to react for 15 min in the dark at room temperature. After reaction, the 96-well U-shaped plate was resuspended with 1% BSA/PBS, centrifuged (300 g×3 min) to discard the supernatant, washed three times in such a way, and finally resuspended with 100 μL of 1% BSA/PBS for each wall; and the fluorescence intensity of an FITC channel was detected with a flow cytometer (BD, #CantoII).
# [8] = molecular target: T2, human TIGIT on CHOK1-huTIGIT-2A3 cells; assay: flow cytometry on CHOK1-huTIGIT-2A3 cells
# Description: All chimeric antibodies and humanized antibodies were diluted to 20 μg/ml with 1% BSA in PBS solution (1% BSA/PBS), were added to a 96-well U-shaped plate at 20 μL per well; and a negative control (with 1% BSA/PBS added only) was set up at the same time. The suspension of cells (CHOK1-huTIGIT-2A3, Huabo Biopharm) expressing human TIGIT during the logarithmic growth phase were centrifuged (1000 rpm×5 min) to discard the culture medium; and the cells were resuspended with 1% BSA/PBS until the density of viable cells was 1×10⁶/mL, and were added, at 20 μL (2×10⁴ cells) per well, to the 96-well U-shaped plate with the anti-TIGIT antibody to react for 30 min at room temperature. After reaction, the 96-well U-shaped plate was resuspended with 1% BSA/PBS, centrifuged (300 g×3 min) to discard the supernatant, and washed once in such a way; and PE-goat anti-human-Fc (Jackson ImmunoResearch, #109-115-098) diluted at 1:200 was added to react for 15 min in the dark at room temperature. After reaction, the 96-well U-shaped plate was resuspended with 1% BSA/PBS, centrifuged (300 g×3 min) to discard the supernatant, washed three times in such a way, and finally resuspended with 100 μL of 1% BSA/PBS for each wall; and the fluorescence intensity of a PE channel was detected with a flow cytometer (BD, #CantoII).
# T3 sequence (Q9NZQ7 19-238 limits assumed): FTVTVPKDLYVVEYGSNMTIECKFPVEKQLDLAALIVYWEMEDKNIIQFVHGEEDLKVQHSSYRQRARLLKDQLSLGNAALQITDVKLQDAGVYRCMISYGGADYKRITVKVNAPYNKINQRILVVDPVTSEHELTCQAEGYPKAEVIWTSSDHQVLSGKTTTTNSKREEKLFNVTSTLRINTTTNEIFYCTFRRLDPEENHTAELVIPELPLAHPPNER
# PD-L1 on CHO-K1-0S8-PD-L1-8D6 cells, sequence (Q9NZQ7 whole entry): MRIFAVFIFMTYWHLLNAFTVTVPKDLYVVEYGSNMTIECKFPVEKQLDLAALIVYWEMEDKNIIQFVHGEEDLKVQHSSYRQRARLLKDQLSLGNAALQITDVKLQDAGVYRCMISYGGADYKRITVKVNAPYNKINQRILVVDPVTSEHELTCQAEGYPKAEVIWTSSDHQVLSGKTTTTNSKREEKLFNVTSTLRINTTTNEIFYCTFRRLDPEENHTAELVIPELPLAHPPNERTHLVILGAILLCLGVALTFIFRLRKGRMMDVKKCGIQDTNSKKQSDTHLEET
Binder,"EC50 (nM), IL2 secretion of Jurkat-TIGIT-22G8 cells with PHA and CD155 [1]",Kd [2],koff [2],kon [2],Kd [3],koff [3],kon [3],IC50 [7],EC50 [8],further results
"900686 (bispecific antibody, human IgG1, kappa, also called TIGIT-IgG-PD-L1-scFv) heavy: not shown light: DIQMTQSPSSLSASVGDRVTITCRASQHVSTAVNWYQQKPGKAPKLLIYSASYLYSGVPSRFSGSRSGTDFTLTISSLQPEDFATYYCQQHYITPYTFGQGTKLEIKRTVAAPSVFIFPPSDEQLKSGTASVVCLLNNFYPREAKVQWKVDNALQSGNSQESVTEQDSKDSTYSLSSTLTLSKADYEKHKVYACEVTHQGLSSPVTKSFNRGEC",12.9 nM,0.893 nM,0.000419 s⁻¹,469000 M⁻¹ s⁻¹,0.0476 nM,0.0002 s⁻¹,4.19e+06 M⁻¹ s⁻¹,,,
"900683 (bispecific antibody, human IgG1, kappa, also called TIGIT-IgG-PD-L1-scFv) heavy: not shown light: DIQMTQSPSSLSASVGDRVTITCRASQHVSTAVNWYQQKPGKAPKLLIYSASYLYSGVPSRFSGSRSGTDFTLTISSLQPEDFATYYCQQHYITPYTFGQGTKLEIKRTVAAPSVFIFPPSDEQLKSGTASVVCLLNNFYPREAKVQWKVDNALQSGNSQESVTEQDSKDSTYSLSSTLTLSKADYEKHKVYACEVTHQGLSSPVTKSFNRGEC",8.64 nM,1.05 nM,0.000492 s⁻¹,469000 M⁻¹ s⁻¹,0.0478 nM,0.000196 s⁻¹,4.1e+06 M⁻¹ s⁻¹,,,
"900681 (bispecific antibody, human IgG1, kappa, also called TIGIT-IgG-PD-L1-scFv) heavy: not shown light: DIQMTQSPSSLSASVGDRVTITCRASQHVSTAVNWYQQKPGKAPKLLIYSASYLYSGVPSRFSGSRSGTDFTLTISSLQPEDFATYYCQQHYITPYTFGQGTKLEIKRTVAAPSVFIFPPSDEQLKSGTASVVCLLNNFYPREAKVQWKVDNALQSGNSQESVTEQDSKDSTYSLSSTLTLSKADYEKHKVYACEVTHQGLSSPVTKSFNRGEC",8.96 nM,1.47 nM,0.000427 s⁻¹,290000 M⁻¹ s⁻¹,0.0693 nM,0.000245 s⁻¹,3.53e+06 M⁻¹ s⁻¹,,,
"900684 (bispecific antibody, human IgG1, kappa, also called TIGIT-IgG-PD-L1-scFv) heavy: not shown light: DIQMTQSPSSLSASVGDRVTITCRASQHVSTAVNWYQQKPGKAPKLLIYSASYLYSGVPSRFSGSRSGTDFTLTISSLQPEDFATYYCQQHYITPYTFGQGTKLEIKRTVAAPSVFIFPPSDEQLKSGTASVVCLLNNFYPREAKVQWKVDNALQSGNSQESVTEQDSKDSTYSLSSTLTLSKADYEKHKVYACEVTHQGLSSPVTKSFNRGEC",11.1 nM,1.29 nM,0.000376 s⁻¹,291000 M⁻¹ s⁻¹,0.0502 nM,0.000184 s⁻¹,3.67e+06 M⁻¹ s⁻¹,,,
"900685 (bispecific antibody, human IgG1, kappa, also called TIGIT-IgG-PD-L1-scFv) heavy: not shown light: DIQMTQSPSSLSASVGDRVTITCRASQHVSTAVNWYQQKPGKAPKLLIYSASYLYSGVPSRFSGSRSGTDFTLTISSLQPEDFATYYCQQHYITPYTFGQGTKLEIKRTVAAPSVFIFPPSDEQLKSGTASVVCLLNNFYPREAKVQWKVDNALQSGNSQESVTEQDSKDSTYSLSSTLTLSKADYEKHKVYACEVTHQGLSSPVTKSFNRGEC",12.1 nM,2.76 nM,0.000527 s⁻¹,191000 M⁻¹ s⁻¹,0.0428 nM,0.00021 s⁻¹,4.89e+06 M⁻¹ s⁻¹,,,
"900687 (bispecific antibody, human IgG1, kappa, also called TIGIT-IgG-PD-L1-scFv) heavy: not shown light: DIQMTQSPSSLSASVGDRVTITCRASQHVSTAVNWYQQKPGKAPKLLIYSASYLYSGVPSRFSGSRSGTDFTLTISSLQPEDFATYYCQQHYITPYTFGQGTKLEIKRTVAAPSVFIFPPSDEQLKSGTASVVCLLNNFYPREAKVQWKVDNALQSGNSQESVTEQDSKDSTYSLSSTLTLSKADYEKHKVYACEVTHQGLSSPVTKSFNRGEC",11 nM,1.37 nM,0.00038 s⁻¹,278000 M⁻¹ s⁻¹,0.0515 nM,0.000204 s⁻¹,3.96e+06 M⁻¹ s⁻¹,,,
"900691 (bispecific antibody, human IgG1, kappa, also called PD-L1-IgG-TIGIT-scFv) heavy: not shown light: DVVMTQTPLSLSVTPGQPASISCKSSQSLANSYGNTYLSWYLHKPGQSPQLLIYGISNRFSGVPDRFSGSGSGTDFTLKISRVEAEDVGVYYCLQGTHQPPTFGQGTKLEIKRTVAAPSVFIFPPSDEQLKSGTASVVCLLNNFYPREAKVQWKVDNALQSGNSQESVTEQDSKDSTYSLSSTLTLSKADYEKHKVYACEVTHQGLSSPVTKSFNRGEC",,,,,,,,,,"Kd [4]: 2.24 nM; koff [4]: 0.000481 s⁻¹; kon [4]: 214000 M⁻¹ s⁻¹; Kd [5]: 0.0925 nM; koff [5]: 9.13e-05 s⁻¹; kon [5]: 987000 M⁻¹ s⁻¹; EC50 (nM), luciferase reporter, Jurkat-NFAT-PD-1-5B8 cells with CHO-K1-0S8-PD-L1-8D6 cells [6]: 1.84 nM"
"900424 (antibody, human IgG1, kappa, L234A L235A, V domains shown, Chimeric form of B3/29F6; also called ADCC KO type human-mouse chimeric antibody (number 900424)) VH: DVQLQESGPGLVKPSQSLSLTCTVTGYSITSDYAWIWIRQFPGNKVEWMGYITSSGSTSYNPSLKSRISFTRDTSKNQFFLQLTSVTTEDTATYYCARLDFGNYGGAMDYWGQGTSVTVSS VL: DIVMTQSHKFMSTSIGDRVSITCKASQHVSTAVAWYQQKPGQSPKLLIYSASYRYTGVPDRFTGSRSGTDFTFTISSVQAEDLAVYYCQQHYITPYTFGGGTKLEIKR",,,,,,,,0.062 µg/mL,0.053 µg/mL,
"HB0031 (antibody, human IgG1, kappa, V domains shown, Humanized anti-TIGIT IgG1; also called 900464) VH: QVQLQESGPGLVKPSETLSLTCTVSGYSITSDYAWIWIRQPPGKGLEWIGYITSSGSTYYNPSLKSRVTFSVDTSKNQFSLKLSSVTAADTATYYCARLDFGNYGGAMDYWGQGTLVTVSS VL: DIQMTQSPSSLSASVGDRVTITCKASQHVSTALAWYQQKPGKAPKLLIYSASYLQSGVPSRFSGSRSGTDFTLTISSLQPEDFATYYCQQHYITPYTFGQGTKLEIKR",,,,,,,,0.0665 µg/mL,0.0581 µg/mL,
"HB0033 (antibody, human IgG1, kappa, V domains shown, Humanized anti-TIGIT IgG1; also called 900476) VH: QVQLQESGPGLVKPSETLSLTCTVSGYSITSDYAWIWIRQPPGNKLEWIGYITSSGSTYYNPSLKSRVTFSVDTSKNQFSLKLSSVTAADTATYYCARLDFGNYGGAMDYWGQGTLVTVSS VL: DIQMTQSPSSLSASVGDRVTITCKASQHVSTALAWYQQKPGKAPKLLIYSASYLQSGVPSRFSGSRSGTDFTLTISSLQPEDFATYYCQQHYITPYTFGQGTKLEIKR",,,,,,,,0.056 µg/mL,0.0514 µg/mL,
"HB0032 (antibody, human IgG1, kappa, V domains shown, Humanized anti-TIGIT IgG1; also called 900466) VH: QVQLQESGPGLVKPSETLSLTCTVSGYSITSDYAWIWIRQPPGKKLEWIGYITSSGSTYYNPSLKSRVTFSVDTSKNQFSLKLSSVTAADTATYYCARLDFGNYGGAMDYWGQGTLVTVSS VL: DIQMTQSPSSLSASVGDRVTITCKASQHVSTAVNWYQQKPGKAPKLLIYSASYRQSGVPSRFSGSGSGTDFTLTISSLQPEDFATYYCQQHYITPYTFGQGTKLEIKR",,,,,,,,0.0919 µg/mL,0.0785 µg/mL,
"900428 (antibody, human IgG1, kappa, L234A L235A, V domains shown, also called anti-TIGIT chimeric antibody 900428) VH: DVQLQESGPGLVKPSQSLSLTCTVTGYSITSDYAWNWIRQFPGNRLEWMGYISYSGAPRYNPSLKSRISITRDTSKNQFFLQLSFVTTEDTATYYCASLGTDYYAMDYWGQGTSVIVSS VL: DIVMTQSHKFMFTSVGDRVSITCKASQHVSNAVAWYQQKPGQSPKLLIHSASYRYTGVPDRFTGRGSGTDFTFTINSVQAEDLAVYYCQQYYSLPWTFGGGTKLEIKR",,,,,,,,0.069 µg/mL,0.075 µg/mL,
"900423 (antibody, human IgG1, kappa, L234A L235A, V domains shown, also called anti-TIGIT chimeric antibody 900423) VH: DVQLQESGPGLVKPSQSLSLTCTVTGYSITSDYAWNWIRQFPGNRLEWMGYISYSGAPRYNPSLKSRISITRDTSKNQFFLQLSFVTTEDTATYYCASLGTDYYAMDYWGQGTSVIVSS VL: DIVMTQSHKFMFTSVGDRVSITCKASQHVSNAVAWYQQKPGQSPKLLIHSASYRYTGVPDRFIGRGSGTDFTFTISSVQAEDLAVYYCQQYYSLPWTFGGGTKLEIKR",,,,,,,,0.065 µg/mL,0.06 µg/mL,
